From publication PMC3857177 (PLoS ONE, 2013)

B2: human Rock1 707–946, 900ESE902 to alanine (domain or fragment, UniProt Q13464 707-946, looked up)
chain: EAKSVAMCEMEKKLKEEREAREKAENRVVQIEKQCSMLDVDLKQSQQKLEHLTGNKERMEDEVKNLTLQLEQESNKRLLLQNELKTQAFEADNLKGLEKQMKQEINTLLEAKRLLEFELAQLTKQYRGNEGQMRELQDQLEAEQYFSTLYKTQVKELKEEIEEKNRENLKKIQELQNEKETLATQLDLAETKAAAAQLARGLLEEQYFELTQESKKAASRNRQEITDKDHTVSRLEEANS
notes: source: E. coli BL21(DE3) codon plus (RIPL), purified; not shown: His6, N-terminal, cleaved
B3: human Shrm2 SD2 domain (1427–1610), N-terminally labelled with Oregon Green 488 (domain or fragment, UniProt Q13796 1427-1610, looked up)
chain: SDLDHDLSVKKQELIESISRKLQVLREARESLLEDVQANTVLGAEVEAIVKGVCKPSEFDKFRMFIGDLDKVVNLLLSLSGRLARVENALNNLDDGASPGDRQSLLEKQRVLIQQHEDAKELKENLDRRERIVFDILANYLSEESLADYEHFVKMKSALIIEQRELEDKIHLGEEQLKCLLDSL
modifications: Oregon Green 488 (succinimidyl ester) on the N-terminus, labelling essentially 1:1
notes: Shroom2 (Shrm2), human, Shrm Domain 2 (SD2), residues 1427-1610; Same construct as m1, with the fluorophore; also called Shrm2 SD2-Oregon Green 488; Oregon-Green labeled human Shrm2 SD2 domain; source: E. coli BL21(DE3) Codon+(RILP), purified, then labelled
B5: human Shrm2 SD2 domain (1427–1610), untagged (domain or fragment, UniProt Q13796 1427-1610, looked up)
chain: SDLDHDLSVKKQELIESISRKLQVLREARESLLEDVQANTVLGAEVEAIVKGVCKPSEFDKFRMFIGDLDKVVNLLLSLSGRLARVENALNNLDDGASPGDRQSLLEKQRVLIQQHEDAKELKENLDRRERIVFDILANYLSEESLADYEHFVKMKSALIIEQRELEDKIHLGEEQLKCLLDSL
notes: Shroom2 (Shrm2), human, Shrm Domain 2 (SD2), residues 1427-1610; Cloned into pET151/D-TOPO (His6 removable with TEV); called untagged in the pull-down; also called Shrm SD2; human Shroom2 SD2; source: E. coli BL21(DE3) Codon+(RILP), purified; not shown: His6, N-terminal, cleaved

What was measured:
[1] = target: T1, human Shrm2 SD2 domain (1427–1610), N-terminally labelled with Oregon Green 488 (human, UniProt Q13796 1427-1610, Oregon Green 488 (succinimidyl ester) on the N-terminus, labelling essentially 1:1); assay: FP
T1 chain: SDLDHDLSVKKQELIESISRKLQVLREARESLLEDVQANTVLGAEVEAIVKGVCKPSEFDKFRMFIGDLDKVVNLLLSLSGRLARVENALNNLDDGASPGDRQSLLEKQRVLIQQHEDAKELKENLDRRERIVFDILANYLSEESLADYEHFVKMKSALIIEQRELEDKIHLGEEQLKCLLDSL

[2] = target: B3; assay: fluorescence polarisation; fluorescence anisotropy; 20 nM (legends: 50 nM) N-terminally Oregon Green 488-labelled Shrm2 SD2, increasing concentrations of Rock1 SBD; 20 mM Hepes pH 7.4, 100 mM NaCl, 5% glycerol; single binding model; conditions: both partners purified
[3] = target: human Rock1 707–946, 900ESE902 to alanine (human, UniProt Q13464 707-946, 900ESE902 alanine substitutions); assay: FP
[4] = target: T2, human Rock1 707–946, wild type (human, UniProt Q13464 707-946); assay: fluorescence polarisation; fluorescence anisotropy; 20 nM (legends: 50 nM) N-terminally Oregon Green 488-labelled Shrm2 SD2, increasing concentrations of Rock1 SBD; 20 mM Hepes pH 7.4, 100 mM NaCl, 5% glycerol; single binding model; conditions: both partners purified
T2 construct: also called wild-type Rock1 SBD; not shown: His6, N-terminal, cleaved
T2 sequence (looked up): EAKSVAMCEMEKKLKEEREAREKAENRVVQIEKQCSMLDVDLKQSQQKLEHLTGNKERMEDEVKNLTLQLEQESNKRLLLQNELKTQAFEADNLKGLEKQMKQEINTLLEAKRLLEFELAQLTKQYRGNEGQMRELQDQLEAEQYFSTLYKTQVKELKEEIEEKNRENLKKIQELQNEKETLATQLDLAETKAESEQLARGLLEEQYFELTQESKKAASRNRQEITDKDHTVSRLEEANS

[5] = target: the molecule itself; assay: cross-linking; 0.002% glutaraldehyde, 25 min, 26 µM protein; 25 mM HEPES pH 7.5, 8% glycerol, 500 mM NaCl, 5 mM β-ME; SDS-PAGE, Coomassie
[6] = target: T3, His6-tagged human Rock1 707–913 (human, UniProt Q13464 707-913); assay: pull-down; 25 µg purified His-tagged Rock1 fragment on nickel beads, 2x molar excess of untagged Shrm2 SD2, 10 min room temperature; 2% glycerol, 100 mM NaCl, 7 mM imidazole, 1 mM β-mercaptoethanol, 20 mM Tris pH 8.0; SDS-PAGE, Coomassie; conditions: both partners purified
T3 construct: source: E. coli BL21(DE3) codon plus (RIPL), purified; not shown: His6, N-terminal, kept
T3 sequence (looked up): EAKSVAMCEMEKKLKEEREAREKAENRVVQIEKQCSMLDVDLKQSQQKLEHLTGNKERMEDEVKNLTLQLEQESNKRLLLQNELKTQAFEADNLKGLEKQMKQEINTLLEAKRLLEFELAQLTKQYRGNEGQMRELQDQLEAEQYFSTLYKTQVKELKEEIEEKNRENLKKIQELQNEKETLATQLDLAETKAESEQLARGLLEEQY

[7] = target: T4, human Rock1 707–946, SBD^SER variant (human, UniProt Q13464 707-946, triple alanine mutation, 884EKE886); assay: native gel or EMSA; 10 µM Rock1 707–946 (wild type or mutant) mixed with 10 µM human Shrm2 SD2, 20 min room temperature; 12% native PAGE at 4°C, Coomassie; conditions: both partners purified
T4 construct: source: E. coli BL21(DE3) codon plus (RIPL), purified; not shown: His6, N-terminal, cleaved
T4 sequence (looked up): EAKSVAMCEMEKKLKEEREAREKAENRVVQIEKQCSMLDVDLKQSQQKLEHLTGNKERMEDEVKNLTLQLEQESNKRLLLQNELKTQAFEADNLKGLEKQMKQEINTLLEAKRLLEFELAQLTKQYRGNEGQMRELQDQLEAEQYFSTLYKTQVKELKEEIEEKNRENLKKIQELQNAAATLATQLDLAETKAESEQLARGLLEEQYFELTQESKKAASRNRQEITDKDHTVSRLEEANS

[8] = target: T2, human Rock1 707–946, wild type; assay: as above; conditions: both partners purified
[9] = target: B2; assay: as above; conditions: both partners purified
[10] = target: T5, human Rock1 707–946, 865EE866 to alanine (human, UniProt Q13464 707-946, 865EE866 alanine substitutions); assay: as above; conditions: both partners purified
T5 construct: source: E. coli BL21(DE3) codon plus (RIPL), purified; not shown: His6, N-terminal, cleaved
T5 sequence (looked up): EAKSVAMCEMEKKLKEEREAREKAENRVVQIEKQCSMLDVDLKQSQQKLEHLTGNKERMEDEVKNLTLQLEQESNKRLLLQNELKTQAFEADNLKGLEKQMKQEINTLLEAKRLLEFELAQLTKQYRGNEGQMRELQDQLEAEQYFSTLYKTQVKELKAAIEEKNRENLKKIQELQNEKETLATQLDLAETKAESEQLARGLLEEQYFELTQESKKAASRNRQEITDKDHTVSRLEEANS

[11] = target: B5; assay: pull-down; 25 µg purified His-tagged Rock1 fragment on nickel beads, 2x molar excess of untagged Shrm2 SD2, 10 min room temperature; 2% glycerol, 100 mM NaCl, 7 mM imidazole, 1 mM β-mercaptoethanol, 20 mM Tris pH 8.0; SDS-PAGE, Coomassie; conditions: both partners purified

B1: human Rock1 707–946, wild type (domain or fragment)
chain: EAKSVAMCEMEKKLKEEREAREKAENRVVQIEKQCSMLDVDLKQSQQKLEHLTGNKERMEDEVKNLTLQLEQESNKRLLLQNELKTQAFEADNLKGLEKQMKQEINTLLEAKRLLEFELAQLTKQYRGNEGQMRELQDQLEAEQYFSTLYKTQVKELKEEIEEKNRENLKKIQELQNEKETLATQLDLAETKAESEQLARGLLEEQYFELTQESKKAASRNRQEITDKDHTVSRLEEANS
Kd [1]: 1.7 µM

B2
fold decrease in binding affinity against wild type [2]: ~5.5 fold

B3
Kd [3]: 9.3 µM
binding result [4]: binds

B4: human Rock1 SBD (834–913), wild type (domain or fragment, UniProt Q13464 834-913, looked up)
chain: GNEGQMRELQDQLEAEQYFSTLYKTQVKELKEEIEEKNRENLKKIQELQNEKETLATQLDLAETKAESEQLARGLLEEQY
notes: PDB 4L2W holds the same limits with the SER mutation 884EKE886 to AAA; also called WT SBD; not shown: His6, N-terminal, cleaved
Kd [1]: 5.3 µM
stoichiometry N [5]: 2
binding result [2]: binds

B5
binding result [6]: binds
binding result [7]: binds
binding result [8]: binds
binding result [9]: binds
binding result [10]: binds

B6: His6-tagged human Rock1 772–913 (domain or fragment, UniProt Q13464 772-913, looked up)
chain: LTLQLEQESNKRLLLQNELKTQAFEADNLKGLEKQMKQEINTLLEAKRLLEFELAQLTKQYRGNEGQMRELQDQLEAEQYFSTLYKTQVKELKEEIEEKNRENLKKIQELQNEKETLATQLDLAETKAESEQLARGLLEEQY
notes: source: E. coli BL21(DE3) codon plus (RIPL), purified; not shown: His6, N-terminal, kept
binding result [11]: binds

B7: His6-tagged human Rock1 834–913 (domain or fragment, UniProt Q13464 834-913, looked up)
chain: GNEGQMRELQDQLEAEQYFSTLYKTQVKELKEEIEEKNRENLKKIQELQNEKETLATQLDLAETKAESEQLARGLLEEQY
notes: PDB 4L2W holds the same limits with the SER mutation 884EKE886 to AAA; source: E. coli BL21(DE3) codon plus (RIPL), purified; not shown: His6, N-terminal, kept
binding result [11]: binds

B8: human Rock1 SBD (834–913) with the surface entropy reduction mutation (SBD^SER) (domain or fragment, UniProt Q13464 834-913, looked up)
chain: GNEGQMRELQDQLEAEQYFSTLYKTQVKELKEEIEEKNRENLKKIQELQNAAATLATQLDLAETKAESEQLARGLLEEQY
notes: A selenomethionine form was used for phasing only; also called Rock1 SBD^SER; SER mutant; not shown: His6, N-terminal, cleaved
stoichiometry N [5]: 2
